Experiment [1] deals with T1, full length human GP130 (L2V natural variant) on HEK293/Stat3-luc/gp130-2X Sort cells (human, UniProt P40189 23-918).
T1 construct: whole, on cells; Stably over-expressed on HEK293 cells, sorted twice for high expression; also called HEK293/gp130 2X Sort
T1 sequence (looked up): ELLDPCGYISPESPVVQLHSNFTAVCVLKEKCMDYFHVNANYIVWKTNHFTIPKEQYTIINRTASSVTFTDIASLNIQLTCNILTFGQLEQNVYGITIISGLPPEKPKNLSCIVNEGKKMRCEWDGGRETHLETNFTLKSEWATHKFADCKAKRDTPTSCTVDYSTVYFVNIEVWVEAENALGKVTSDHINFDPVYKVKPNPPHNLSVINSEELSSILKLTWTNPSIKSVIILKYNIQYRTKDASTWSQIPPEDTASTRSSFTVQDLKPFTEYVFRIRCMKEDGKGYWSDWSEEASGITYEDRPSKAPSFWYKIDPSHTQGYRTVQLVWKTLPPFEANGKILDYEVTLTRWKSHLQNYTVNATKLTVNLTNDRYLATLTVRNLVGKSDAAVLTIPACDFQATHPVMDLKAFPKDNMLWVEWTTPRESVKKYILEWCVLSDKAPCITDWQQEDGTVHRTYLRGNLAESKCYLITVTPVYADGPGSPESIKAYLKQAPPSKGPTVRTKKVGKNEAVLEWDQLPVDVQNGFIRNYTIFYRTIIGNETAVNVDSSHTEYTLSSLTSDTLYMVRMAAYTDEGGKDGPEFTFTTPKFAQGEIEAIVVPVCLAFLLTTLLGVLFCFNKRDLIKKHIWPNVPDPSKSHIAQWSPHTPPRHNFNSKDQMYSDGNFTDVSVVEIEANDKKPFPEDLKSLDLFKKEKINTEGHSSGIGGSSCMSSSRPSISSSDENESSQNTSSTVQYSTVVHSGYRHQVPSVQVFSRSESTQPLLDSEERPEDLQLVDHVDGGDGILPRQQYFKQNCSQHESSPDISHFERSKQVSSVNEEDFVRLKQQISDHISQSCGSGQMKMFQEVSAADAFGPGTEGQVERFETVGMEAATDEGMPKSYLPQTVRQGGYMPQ
Kind of experiment: FACS, 200 nM antibody on HEK293/gp130 2X Sort cells. As for the experimental part: For the FACS analysis, 0.5×10^6 cells/well of HEK293 parental cells, HEK293/Stat3-luc/gp130-2 X Sort cells, and HEK293/hLEPR-GPI cells, were incubated with 200 nM of the conventional antibodies against either GP130 or LEPR or with LEPRxGP130 bispecific antibodies, along with isotype control antibodies at 4° C. in PBS (without calcium and magnesium) containing 2% FBS.
Cells were fixed using BD CytoFix™ (Becton Dickinson, #554655) and analyzed on an IQue® (Intellicyt) Flow Cytometer. Unstained and secondary antibody alone controls were also tested for all cell lines. The results were analyzed using ForeCyt® (IntelliCyt) and FlowJo version 10 softwares to determine the geometric means of fluorescence for viable cells.

Experiment [2] concerns the target T2, Macaca Fascicularis GP130 extracellular domain expressed with a C-terminal myc-myc-hexahistidine tag (Macaca fascicularis, UniProt P40189 23-619 (human entry)).
T2 construct: also called mfGP130-MMH; mfGP130-mmH
T2 chain: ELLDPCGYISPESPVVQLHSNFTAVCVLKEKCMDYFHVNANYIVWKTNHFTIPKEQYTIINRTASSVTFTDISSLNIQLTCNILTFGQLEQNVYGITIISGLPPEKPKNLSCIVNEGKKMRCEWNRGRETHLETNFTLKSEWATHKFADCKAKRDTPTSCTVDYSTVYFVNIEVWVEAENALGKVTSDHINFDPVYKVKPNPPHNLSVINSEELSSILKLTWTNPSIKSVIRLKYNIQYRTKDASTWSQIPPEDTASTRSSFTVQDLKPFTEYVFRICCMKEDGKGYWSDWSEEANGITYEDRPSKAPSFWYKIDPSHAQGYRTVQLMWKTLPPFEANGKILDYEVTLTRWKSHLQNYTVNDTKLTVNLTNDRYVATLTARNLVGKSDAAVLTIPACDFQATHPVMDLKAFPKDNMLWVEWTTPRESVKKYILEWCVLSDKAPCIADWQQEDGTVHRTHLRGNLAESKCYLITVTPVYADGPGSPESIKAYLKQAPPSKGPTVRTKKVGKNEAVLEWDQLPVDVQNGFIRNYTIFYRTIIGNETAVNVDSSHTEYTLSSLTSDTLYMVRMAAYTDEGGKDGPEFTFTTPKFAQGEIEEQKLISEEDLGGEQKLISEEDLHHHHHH
Kind of experiment: SPR, bsAb captured by anti-hFc, 37C. In a few lines: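 Anti-hFc-captured bispecific antibodies received 3-fold serial dilutions of LEPR or GP130 (100 nM–3.7 nM) in HBS-ET, pH 7.4, injected for 4 min with 10 min dissociation at 25 °C or 37 °C. ka and kd came from a 1:1 binding model with mass transport limitation, and KD and t½ were calculated from these rate constants.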

B1: bsAb21236D (bispecific antibody, V domains shown)
VH 1: QVQLQESGPGLVKPSQTLSLTCTVSGGSISSGGDYWSWIRQLPGKGLEWIGYIYYSGSAYYNPSLKSRGTISIDTSKNQFSLKLTSVTAADTAVYFCVKLRFLEWFLGGWFGPWGQGTLVTVSS
VH 2: QVQLVESGGGLVKPGGSLRLSCAASGFTFSDYYMTWIRQTPGKGLDWVSYISSSGTNKYNADSVKGRFTISRDNAKNSLYLQMNSLRAEDTAVYYCVRDPPWGMDVWGQGTTVTVSS
VL: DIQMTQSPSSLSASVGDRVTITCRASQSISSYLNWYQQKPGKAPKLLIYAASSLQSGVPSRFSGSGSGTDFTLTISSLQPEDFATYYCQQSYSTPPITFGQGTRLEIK
notes: LEPR x GP130 bispecific with common light chain; also called H4H21236D; bsAb21236 (LEPR × GP130)
With B1, the “Binding Ratio, normalized to unstained sample (FL4-A)” value in experiment [1] amounted to 132 fold. Moreover, in experiment [2], the “100 nM mfGP130-MMH Bound (RU)” value is 18 RU, binding was characterised by a dissociation constant (Kd) of 179 nM, the koff was 0.0125 s⁻¹ and the kon came to 69800 M⁻¹ s⁻¹. The same molecule gave a t½ in experiment [2] of 0.9 min.

B2: bsAb21237D (bispecific antibody, V domains shown)
VH 1: EVQLVESGGGLVQPGGSLRLSCAASGFTFSNYGMTWVRQAPGKGLEWVSAITGGGGSTYYSNSVKGRFTISRDNSKNTVYLRMNSVRAEDTAVYYCAKYKWNFVDDWGQGTTVTVSS
VH 2: B1 VH 2
VL: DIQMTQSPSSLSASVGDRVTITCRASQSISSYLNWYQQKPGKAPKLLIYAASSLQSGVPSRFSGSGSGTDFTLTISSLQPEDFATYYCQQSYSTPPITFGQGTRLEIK
notes: LEPR x GP130 bispecific with common light chain; also called H4H21237D; bsAb21237 (LEPR × GP130)
As to B2, in experiment [1], the “Binding Ratio, normalized to unstained sample (FL4-A)” value is 169 fold. Besides, in experiment [2], the “100 nM mfGP130-MMH Bound (RU)” value is 21 RU, binding was characterised by a dissociation constant (Kd) of 215 nM, the koff was 0.00792 s⁻¹ and the kon amounted to 36900 M⁻¹ s⁻¹. This molecule also gave a t½ in experiment [2] of 1.5 min.

For the origin of these results see patent publication US20240158497A1 (published 2024).
